Results as given in US20120058906A1.
Each block holds one substance with its values, some of them ahead of it.

Assays:
[1] = target: rHuman CD44/Fc Chimera, CF (R&D Systems Cat#3660-CD) (human) (UniProt P16070); assay: ECL (MSD multi-spot) titration, Fab at 0.0625 uM; blank spot 1738
[2] = target: rHuman CD44/Fc Chimera, CF (R&D Systems Cat#3660-CD) (human) (UniProt P16070); assay: ECL (MSD multi-spot) titration, Fab at 0.01563 uM; blank spot 906
[3] = target: rHuman CD44/Fc Chimera, CF (R&D Systems Cat#3660-CD) (human) (UniProt P16070); assay: ECL (MSD multi-spot) titration, Fab at 0.25 uM; blank spot 6344
[4] = target: rHuman CD44/Fc Chimera, CF (R&D Systems Cat#3660-CD) (human) (UniProt P16070); assay: ECL (MSD multi-spot) titration, Fab at 0.00391 uM; blank spot 576
[5] = target: rHuman HGF R/c-MET/Fc Chimera, CF (R&D Systems Cat#358-MT/CF) (human) (UniProt P08581); assay: MSD ECL multi-spot assay, antigen spotted on plate, Fab 0.25 uM; blank spot 3693
[6] = target: rHuman CD44/Fc Chimera, CF (R&D Systems Cat#3660-CD) (human) (UniProt P16070); assay: as above
[7] = target: rHuman ErbB2/Fc Chimera, CF (R&D Systems Cat#1129-ER) (human) (UniProt P04626); assay: ECL (MSD Multi-Spot) titration, antigen spotted on plate; Fab 0.312 µM; blank spot 1977
[8] = target: Recombinant Human DLL4 (R&D Systems Cat#1506-D4/CF) (human) (UniProt Q9NR61); assay: as above
[9] = target: rHuman Erythropoietin R/Fc Chimera, CF (R&D Systems Cat#963-ER) (human) (UniProt P19235); assay: as above
[10] = target: rHuman EGF R/Fc Chimera, CF (R&D Systems Cat#344-ER) (human) (UniProt P00533); assay: as above
[11] = target: rHuman HGF R/c-MET/Fc Chimera, CF (R&D Systems Cat#358-MT/CF) (human) (UniProt P08581); assay: as above
[12] = target: rHuman Notch-1/Fc Chimera, CF (R&D Systems Cat#3647-TK) (human) (UniProt P46531); assay: as above
[13] = target: rHuman CD44/Fc Chimera, CF (R&D Systems Cat#3660-CD) (human) (UniProt P16070); assay: as above
[14] = target: rHuman ErbB2/Fc Chimera, CF (R&D Systems Cat#1129-ER) (human) (UniProt P04626); assay: MSD ECL multi-spot assay, antigen spotted on plate, Fab […]; blank spot 1129
[15] = target: Recombinant Human DLL4 (R&D Systems Cat#1506-D4/CF) (human) (UniProt Q9NR61); assay: as above
[16] = target: rHuman Erythropoietin R/Fc Chimera, CF (R&D Systems Cat#963-ER) (human) (UniProt P19235); assay: as above
[17] = target: rHuman EGF R/Fc Chimera, CF (R&D Systems Cat#344-ER) (human) (UniProt P00533); assay: as above
[18] = target: rHuman HGF R/c-MET/Fc Chimera, CF (R&D Systems Cat#358-MT/CF) (human) (UniProt P08581); assay: as above
[19] = target: rHuman Notch-1/Fc Chimera, CF (R&D Systems Cat#3647-TK) (human) (UniProt P46531); assay: as above
[20] = target: rHuman CD44/Fc Chimera, CF (R&D Systems Cat#3660-CD) (human) (UniProt P16070); assay: as above
[21] = target: rHuman ErbB2/Fc Chimera, CF (R&D Systems Cat#1129-ER) (human) (UniProt P04626); assay: ECL (MSD Multi-Spot) titration, antigen spotted on plate; Fab 0.0624 µM; blank spot 960
[22] = target: Recombinant Human DLL4 (R&D Systems Cat#1506-D4/CF) (human) (UniProt Q9NR61); assay: as above
[23] = target: rHuman Erythropoietin R/Fc Chimera, CF (R&D Systems Cat#963-ER) (human) (UniProt P19235); assay: as above
[24] = target: rHuman EGF R/Fc Chimera, CF (R&D Systems Cat#344-ER) (human) (UniProt P00533); assay: as above
[25] = target: rHuman HGF R/c-MET/Fc Chimera, CF (R&D Systems Cat#358-MT/CF) (human) (UniProt P08581); assay: as above
[26] = target: rHuman Notch-1/Fc Chimera, CF (R&D Systems Cat#3647-TK) (human) (UniProt P46531); assay: as above
[27] = target: rHuman CD44/Fc Chimera, CF (R&D Systems Cat#3660-CD) (human) (UniProt P16070); assay: as above
[28] = target: rHuman ErbB2/Fc Chimera, CF (R&D Systems Cat#1129-ER) (human) (UniProt P04626); assay: ECL (MSD Multi-Spot) titration, antigen spotted on plate; Fab […]; blank spot 4357
[29] = target: Recombinant Human DLL4 (R&D Systems Cat#1506-D4/CF) (human) (UniProt Q9NR61); assay: as above
[30] = target: rHuman Erythropoietin R/Fc Chimera, CF (R&D Systems Cat#963-ER) (human) (UniProt P19235); assay: as above
[31] = target: rHuman EGF R/Fc Chimera, CF (R&D Systems Cat#344-ER) (human) (UniProt P00533); assay: as above
[32] = target: rHuman HGF R/c-MET/Fc Chimera, CF (R&D Systems Cat#358-MT/CF) (human) (UniProt P08581); assay: as above
[33] = target: rHuman Notch-1/Fc Chimera, CF (R&D Systems Cat#3647-TK) (human) (UniProt P46531); assay: as above
[34] = target: rHuman CD44/Fc Chimera, CF (R&D Systems Cat#3660-CD) (human) (UniProt P16070); assay: as above
[35] = target: rHuman ErbB2/Fc Chimera, CF (R&D Systems Cat#1129-ER) (human) (UniProt P04626); assay: MSD ECL multi-spot assay, antigen spotted on plate, Fab 0.28 uM; blank spot 1773
[36] = target: rHuman HGF R/c-MET/Fc Chimera, CF (R&D Systems Cat#358-MT/CF) (human) (UniProt P08581); assay: as above
[37] = target: rHuman Notch-1/Fc Chimera, CF (R&D Systems Cat#3647-TK) (human) (UniProt P46531); assay: as above
[38] = target: rHuman CD44/Fc Chimera, CF (R&D Systems Cat#3660-CD) (human) (UniProt P16070); assay: as above
[39] = target: rHuman IGF-1 sR (IGF-1 sR), CF (R&D Systems Cat#391-GR) (human) (UniProt P08069); assay: as above
[40] = target: rHuman P-Cadherin/Fc Chimera, CF (R&D Systems Cat#861-PC) (human) (UniProt P22223); assay: MSD ECL multi-spot plate; Fab 4.375 nM; blank spot 305
[41] = target: rHuman P-Cadherin/Fc Chimera, CF (R&D Systems Cat#861-PC) (human) (UniProt P22223); assay: MSD ECL multi-spot plate; Fab 17.5 nM; blank spot 304
[42] = target: rHuman P-Cadherin/Fc Chimera, CF (R&D Systems Cat#861-PC) (human) (UniProt P22223); assay: MSD ECL multi-spot plate; Fab 280 nM; blank spot 1691
[43] = target: rHuman P-Cadherin/Fc Chimera, CF (R&D Systems Cat#861-PC) (human) (UniProt P22223); assay: MSD ECL multi-spot plate; Fab 70 nM; blank spot 635

rHuman Erythropoietin R/Fc Chimera, CF (R&D Systems Cat#963-ER) (human), sequence (P19235 25-250, change not shown): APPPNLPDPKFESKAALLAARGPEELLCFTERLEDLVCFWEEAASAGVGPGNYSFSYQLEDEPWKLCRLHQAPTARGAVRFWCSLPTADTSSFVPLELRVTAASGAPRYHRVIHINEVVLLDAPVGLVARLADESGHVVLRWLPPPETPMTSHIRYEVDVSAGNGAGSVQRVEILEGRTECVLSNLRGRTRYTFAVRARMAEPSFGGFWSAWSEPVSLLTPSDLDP

- ECL signal [1]: 6750
- ECL signal [2]: 3180
- ECL signal [3]: 23000
- ECL signal [4]: 1300
- ECL signal [5]: 5910
- ECL signal [6]: 10400
Substance: Fab VH1-46_IGHD2-15*01_IGHJ2*01 & L2_IGKJ1*01

- ECL signal [7]: 3660
- ECL signal [8]: 5480
- ECL signal [9]: 5020
- ECL signal [10]: 4330
- ECL signal [11]: 4690
- ECL signal [12]: 4460
- ECL signal [13]: 4170
- ECL signal [14]: 2450
- ECL signal [15]: 3770
- ECL signal [16]: 4130
- ECL signal [17]: 2500
- ECL signal [18]: 3120
- ECL signal [19]: 3950
- ECL signal [20]: 2280
- ECL signal [21]: 2150
- ECL signal [22]: 2580
- ECL signal [23]: 2680
- ECL signal [24]: 2420
- ECL signal [25]: 2450
- ECL signal [26]: 2350
- ECL signal [27]: 2110
- ECL signal [28]: 7580
- ECL signal [29]: 10900
- ECL signal [30]: 9480
- ECL signal [31]: 7830
- ECL signal [32]: 10300
- ECL signal [33]: 9450
- ECL signal [34]: 7600
Substance: Fab VH1-46_IGHD7-27*01_IGHJ2*01 & L6_IGKJ1*01

- ECL signal [35]: 4310
- ECL signal [36]: 5180
- ECL signal [37]: 5280
- ECL signal [38]: 4560
- ECL signal [39]: 4640
- ECL signal [40]: 469 ECL signal
- ECL signal [41]: 949 ECL signal
- ECL signal [42]: 5400 ECL signal
- ECL signal [43]: 1820 ECL signal
Substance: Fab VH1-46_IGHD2-15*01_IGHJ2*01 & L12_IGKJ1*01
